Among the data in the Human Domainome abundance scans (Beltran et al. 2025) are abundance fitness values, retold here.

± gives the uncertainty stated by the source.

B1: Protein S100-G, residues 1 to 79; numbered along this chain, P02633 (parent)
chain: MSAKKSPEELKGIFEKYAAKEGDPNQLSKEELKLLLQTEFPSLLKGPSTLDELFEELDKNGDGEVSFEEFQVLVKKISQ

The data set covers variants of B1. The data set is described as follows: abundance fitness (aPCA) (normalised: wild type 0, dead -1); higher = more abundant; growth selection in yeast, the domain comes from the species named. Particulars: Bos taurus.
As to MSAKKSPEELKGIFEKYAAKEGDPNQLSKEELKLLLQTEFPSLLKGPSTLDELFEELDKNGDGKVSFEEFQVLVKKISQ, the abundance fitness is -0.028 ± 0.1. As to MSAKKSPEELKGIFEKYAAKEGDPNQLSKEELKLLLQTEFPSLLKGPSTLDELFEELDKNGDGEVSFEEFQVKVKKISQ, the abundance fitness was -0.413 ± 0.082.

For MSAKKSPNELKGIFEKYAAKEGDPNQLSKEELKLLLQTEFPSLLKGPSTLDELFEELDKNGDGEVSFEEFQVLVKKISQ, the abundance fitness is -0.11 ± 0.089. The value for MSAKKSPEELKGIFEKYAAKEGDPNQLSKEELKLLLQTEFPSLLKGPSTLDELFEELDKNGDGEDSFEEFQVLVKKISQ was -0.86 ± 0.11; that for MSAKKSPEELKGIFEKYAAKEGDPNQLSKEELKLLLQTEFPSLLKGPSTLDELFEELDRNGDGEVSFEEFQVLVKKISQ was -0.003 ± 0.062; that for MSAKKSPEELKGIFEKYAAKEGDPNQLSKEELKLLLQTEFPSLLKGPSTLDELFEELDKNGDEEVSFEEFQVLVKKISQ was 0.118 ± 0.096. The value for MSAKKSPEELKGIFEKYAAKEGDPNQLSKEELKLLLQTEFPSLLKGPSTLDELFEELDKNGDKEVSFEEFQVLVKKISQ was -0.017 ± 0.091; that for MSAKKSPEELKGIFEKYAAKEGDPNQLSKEELKLLLQTEFPSLLKGPSTLDELFEELDKNGDGEVSMEEFQVLVKKISQ was -0.176 ± 0.072; that for MSAKKSPEELKGIFEKYAAKEGDPNQLSKEELKLLLQTEFPSLLKGPSTLDELFEELKKNGDGEVSFEEFQVLVKKISQ was -0.008 ± 0.092. To MSAKKSPEELKGIFEKYAAKEGDPNQLSKEELKLLLQTEFPSLLKGPSTLDELFEELNKNGDGEVSFEEFQVLVKKISQ belongs -0.053 ± 0.084; to MSAKKSPEELKGIFEKYAAKEGDPNQLSKEELKLLLQTIFPSLLKGPSTLDELFEELDKNGDGEVSFEEFQVLVKKISQ, -0.24 ± 0.078.

As to MSSKKSPEELKGIFEKYAAKEGDPNQLSKEELKLLLQTEFPSLLKGPSTLDELFEELDKNGDGEVSFEEFQVLVKKISQ, the abundance fitness is -0.123 ± 0.063. With MSAKKSPEELKGIFEKYAAKEGPPNQLSKEELKLLLQTEFPSLLKGPSTLDELFEELDKNGDGEVSFEEFQVLVKKISQ, the abundance fitness was -0.139 ± 0.083. To MSAKKSPEELKGIFEKYAAYEGDPNQLSKEELKLLLQTEFPSLLKGPSTLDELFEELDKNGDGEVSFEEFQVLVKKISQ belongs -0.112 ± 0.086; to MSAKKSPEELKGIFEKYAAKEGDPNQLSKEELKLLLQTEFHSLLKGPSTLDELFEELDKNGDGEVSFEEFQVLVKKISQ, 0.066 ± 0.088; to MSAKKSPEELKGIFEKYAAKEGDPNQLSKEELKLLLQTEFKSLLKGPSTLDELFEELDKNGDGEVSFEEFQVLVKKISQ, 0.017 ± 0.087.

On to MSAKKSPEELKGIFEKYAAKEGDPNQLSKEELKLLLQTEFPSLLKGPSTLDELFTELDKNGDGEVSFEEFQVLVKKISQ, for which the abundance fitness was determined as 0.005 ± 0.071. To MSAKKSPEELKGIFEKYAAKEGDPNQLSKEELKLLLQTEFPSLLKGPSTCDELFEELDKNGDGEVSFEEFQVLVKKISQ belongs 0.042 ± 0.085. The value for MSAKKSPEELKGIFEKYAAKEGDPNQLSKEELKLLLQTEFPSLLKGPSTVDELFEELDKNGDGEVSFEEFQVLVKKISQ was 0.082 ± 0.065; that for MSAKKSPEELKGIFEKYAAKEGDPNQLSKEELKLLLQTEFPSKLKGPSTLDELFEELDKNGDGEVSFEEFQVLVKKISQ was -0.001 ± 0.078. For MSAKKSPEELKGIFGKYAAKEGDPNQLSKEELKLLLQTEFPSLLKGPSTLDELFEELDKNGDGEVSFEEFQVLVKKISQ, the abundance fitness was -0.062 ± 0.072. Regarding MSAKKSPEELKGIFDKYAAKEGDPNQLSKEELKLLLQTEFPSLLKGPSTLDELFEELDKNGDGEVSFEEFQVLVKKISQ, the abundance fitness was -0.047 ± 0.093. To MSAKKSPEELKGIFIKYAAKEGDPNQLSKEELKLLLQTEFPSLLKGPSTLDELFEELDKNGDGEVSFEEFQVLVKKISQ belongs 0.078 ± 0.081. The value for MSAKKSPEELKGIFEKYAAKEGDPNQLSKEELKLLLETEFPSLLKGPSTLDELFEELDKNGDGEVSFEEFQVLVKKISQ was 0.019 ± 0.092; that for MSAKKSPEELKGIFEKYAAKEGDKNQLSKEELKLLLQTEFPSLLKGPSTLDELFEELDKNGDGEVSFEEFQVLVKKISQ was 0.046 ± 0.082; that for MSAKKSPEELKGIFEKYAAKEGDDNQLSKEELKLLLQTEFPSLLKGPSTLDELFEELDKNGDGEVSFEEFQVLVKKISQ was -0.125 ± 0.086. Turning to MSAKKSPEELKGIFEKYAAKEGDPNQLSKEELKLLLQTEFPSLLKGPSTLDELFEELDKNGDGEVSFEEFQVLVKKYSQ, the abundance fitness was -0.104 ± 0.073. In the case of MSAKKSPEELKGIFEKYAAKEGDPNQLSKEMLKLLLQTEFPSLLKGPSTLDELFEELDKNGDGEVSFEEFQVLVKKISQ, the abundance fitness is -0.007 ± 0.1.

Consider MSAKHSPEELKGIFEKYAAKEGDPNQLSKEELKLLLQTEFPSLLKGPSTLDELFEELDKNGDGEVSFEEFQVLVKKISQ, for which the abundance fitness is -0.163 ± 0.074. The value for MSAKKSPEELKGIFEKYAAKEGDPNQLSKEELKLLLQTEFPSLLKGPSTLDEKFEELDKNGDGEVSFEEFQVLVKKISQ was -0.033 ± 0.08; that for MSAKKSPEELKGIFEKYAAKEGDPNQLSKEELKLLLQTEFPSLLKGPSTLDELFEELDKNGDGEVSFEEFLVLVKKISQ was 0.031 ± 0.064; that for MSAKKSPEELKGIFEKYAAKEGDPNQLSKEELKLLLQTEFPSLLKGPSTLDELFESLDKNGDGEVSFEEFQVLVKKISQ was 0.002 ± 0.064. Regarding MSAKKSPEELKGIFEKYAAKEGDPNQLSKEELKLLLQTEFPSLLKGPSTLDELFECLDKNGDGEVSFEEFQVLVKKISQ, the abundance fitness stood at 0.065 ± 0.086. To MSAKKSPEELKGIFEKYAAKEGDPNQLSKEELKLLLQTEFPSLLKGPSTLDELFETLDKNGDGEVSFEEFQVLVKKISQ belongs 0.001 ± 0.075. To MSAKKSPEELKGIFEKYAAKEGDPNQLSKEELKLLLQTEFPSLLKGPSTLDELFEELDKNGDGEVSFLEFQVLVKKISQ belongs -0.098 ± 0.057.

Consider MSAKKSPEELKGIFEKYAAKEGDPNQLSKEELKLLLQTEFPSLLKGPSTLDELFEELDKNGDGEVSFGEFQVLVKKISQ, for which the abundance fitness is -0.06 ± 0.067.
